Substitutions are numbered along the chain they refer to. Names and notes keep the numbering of the source.
T1: Scar(1-225)/AbiA(1-149)/DdBrk1-complex (Dictyostelium discoideum, UniProt Q54NF8 1-225; Q55FT9 1-149; Q54X65 1-68)
T1 construct: AbiA (Abi) of Dictyostelium discoideum, residues 1-149, untagged; remnant after PreScission cleavage; Brk1 of Dictyostelium discoideum, 68 residues; In the exchange experiment the unlabelled DdBrk1 chain of this complex is replaced by DdBrk1_488; also called Scar/AbiA/DdBrk1 subcomplex; source: E. coli BL21 DE3, coexpressed, purified (glutathione sepharose, PreScission cleavage, Superdex-S75); …
T1 sequence 1: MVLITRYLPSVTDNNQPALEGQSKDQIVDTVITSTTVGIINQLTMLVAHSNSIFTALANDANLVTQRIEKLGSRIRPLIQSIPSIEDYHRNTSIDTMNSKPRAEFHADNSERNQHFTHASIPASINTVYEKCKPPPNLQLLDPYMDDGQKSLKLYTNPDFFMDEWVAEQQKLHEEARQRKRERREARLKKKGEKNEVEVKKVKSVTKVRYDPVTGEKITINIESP
T1 sequence 2: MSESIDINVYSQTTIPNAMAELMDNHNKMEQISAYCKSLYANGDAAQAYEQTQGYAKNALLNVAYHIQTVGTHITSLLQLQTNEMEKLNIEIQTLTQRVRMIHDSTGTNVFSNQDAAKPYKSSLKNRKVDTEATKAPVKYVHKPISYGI
T1 sequence 3: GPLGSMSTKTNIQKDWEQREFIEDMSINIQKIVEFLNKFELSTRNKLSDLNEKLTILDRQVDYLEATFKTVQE

B1: Dictyostelium discoideum Brk1 (DdBrk1), GST tag removed (natural protein)
chain: T1 sequence 3
notes: extra amino acids left at the N-terminus after PreScission cleavage of the GST tag; Brk1 (HSPC300 ortholog) of Dictyostelium discoideum, 68 residues; Calculated molar mass 8.61 kg/mol per chain; homotrimer by sedimentation equilibrium; also called DdHSPC300; HSPC300; source: E. coli BL21 DE3, purified (glutathione sepharose, PreScission cleavage, Mono Q, Superdex-S75); not shown: GST, N-terminal, …
B2: DdBrk1_488 (DdBrk1 mutant M1C labelled with Alexa 488) (natural protein, Dictyostelium discoideum)
chain: T1 sequence 3 with M6C
modifications: Alexa 488 (Alexa-488 Fluor C5 maleimide) on the cysteine that replaces methionine 1
notes: extra amino acids left at the N-terminus after PreScission cleavage of the GST tag; Brk1 of Dictyostelium discoideum, 68 residues, first methionine replaced by cysteine; Trimer at the highest concentrations examined; dissociates in the lower nanomolar range; also called DdBrk1 M1C; DdBrk1_M1C; not shown: GST, N-terminal, cleaved

Tests used:
[1] = target: the molecule itself; assay: AUC; sedimentation equilibrium, 43 µM and 171 µM DdBrk1, PBS, 10°C, 18,000 and 26,000 rpm, absorbance at 280 nm, global fit with a single species
[2] = target: the molecule itself; assay: AUC; sedimentation velocity with fluorescence detection, 8 to 800 nM DdBrk1_488, PBS, 20°C, 50,000 rpm; trimer to monomers
[3] = target: T1, Scar(1-225)/AbiA(1-149)/DdBrk1-complex; assay: SEC; 100 nM DdBrk1_488 incubated with the unlabelled complex (1.4 µM MBP-DdBrk1) for two hours on ice; Superdex-S200 10/300, PBS, 4°C, absorbance at 488 nm and 280 nm; settings: both partners purified

Row | Binder | stoichiometry N [1] | stoichiometry N [2] | binding result [3]
1 | B1 | 3 | – | –
2 | B2 | – | 3 | binds

From paper PMC3119050, “High-Resolution X-Ray Structure of the Trimeric Scar/WAVE-Complex Precursor Brk1” (PLoS ONE, 2011)
